From PMC10535226, “Rapid SERS Detection of Botulinum Neurotoxin Type A”
Where two headings read alike, the source gives them in different places.

Key:
[1] = molecular target: T1, Botulinum neurotoxin type A (Xeomin) (Clostridium botulinum serotype A, UniProt P0DPI1 2-1296); assay: BLI; conditions: protein: commercial
T1 sequence (P0DPI1 2-1296): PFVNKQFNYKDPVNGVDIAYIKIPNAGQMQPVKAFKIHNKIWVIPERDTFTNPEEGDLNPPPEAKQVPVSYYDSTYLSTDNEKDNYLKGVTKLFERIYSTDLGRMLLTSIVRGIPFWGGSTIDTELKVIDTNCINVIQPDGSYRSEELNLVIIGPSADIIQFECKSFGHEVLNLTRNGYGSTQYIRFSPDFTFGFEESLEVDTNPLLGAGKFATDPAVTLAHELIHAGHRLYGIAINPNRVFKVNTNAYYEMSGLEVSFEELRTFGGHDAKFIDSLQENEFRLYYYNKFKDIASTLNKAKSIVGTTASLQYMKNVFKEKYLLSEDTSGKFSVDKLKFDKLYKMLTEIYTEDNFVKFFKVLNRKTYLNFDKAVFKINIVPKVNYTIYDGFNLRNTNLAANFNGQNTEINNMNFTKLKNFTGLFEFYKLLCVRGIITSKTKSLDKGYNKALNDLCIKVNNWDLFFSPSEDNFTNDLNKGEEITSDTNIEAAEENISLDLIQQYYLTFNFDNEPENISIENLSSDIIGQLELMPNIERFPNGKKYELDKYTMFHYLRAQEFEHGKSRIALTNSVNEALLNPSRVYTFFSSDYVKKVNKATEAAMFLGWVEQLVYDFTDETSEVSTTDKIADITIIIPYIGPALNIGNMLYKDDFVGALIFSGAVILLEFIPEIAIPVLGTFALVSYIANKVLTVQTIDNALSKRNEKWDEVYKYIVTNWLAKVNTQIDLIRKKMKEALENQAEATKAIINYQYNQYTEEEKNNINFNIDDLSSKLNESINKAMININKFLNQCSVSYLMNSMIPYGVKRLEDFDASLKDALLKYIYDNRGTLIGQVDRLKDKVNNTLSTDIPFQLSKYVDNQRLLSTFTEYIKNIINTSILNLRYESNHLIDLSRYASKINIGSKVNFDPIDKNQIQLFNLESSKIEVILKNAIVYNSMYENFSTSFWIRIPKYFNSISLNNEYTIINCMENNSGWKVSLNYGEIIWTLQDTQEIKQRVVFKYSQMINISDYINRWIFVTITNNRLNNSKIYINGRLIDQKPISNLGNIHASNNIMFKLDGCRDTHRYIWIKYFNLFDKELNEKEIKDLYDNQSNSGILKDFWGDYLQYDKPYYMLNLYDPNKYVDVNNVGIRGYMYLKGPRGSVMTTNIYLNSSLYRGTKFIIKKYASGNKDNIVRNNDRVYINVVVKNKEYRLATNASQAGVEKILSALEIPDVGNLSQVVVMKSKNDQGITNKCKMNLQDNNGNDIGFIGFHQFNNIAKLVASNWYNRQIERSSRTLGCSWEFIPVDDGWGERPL

[2] = molecular target: Botulinum neurotoxin type A (Xeomin) (Clostridium botulinum serotype A, UniProt P0DPI1 2-1296); assay: SERS aptasensor; conditions: protein: commercial; label: 3' TAMRA
Target sequence in this assay (P0DPI1 2-1296): as above

[3] = molecular target: T1, Botulinum neurotoxin type A (Xeomin)

B1: Apt_2.22 (structured_DNA)
DNA: ATACCAGCTTATTCAATTGACATGACTGGGATTTTTGGCGAAATCGAAGGAAGCGGAGAGATAGTAAGTGCAATCT
Kd [1]: 7 ± 4 nM

B2: Apt_2.22_mod (structured_DNA)
DNA: B1 DNA
modifications: 5' SH-(CH2)6
binding result [2]: binds

AGTGCGGTGAGCCGTCGGACATACAAATAC (ssDNA) [SH-H8-TAMRA]
binding result [3]: no binding
